The values that follow come from the nanobody polyreactivity screen of Harvey et al. (2022).

The nature of this data set: yeast display, Sf9 membrane polyspecificity reagent, FACS + sequencing; frameworks hold sequencing errors. The method in brief:
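Sorting gates, low and high (top ~1%), were placed on anti-HA fluorescence to track expression and on streptavidin fluorescence to track reagent binding. A clone's polyreactivity label is taken from the gate it came out of. The reagent was 10% biotinylated, detergent-solubilized Sf9 membrane, applied for 1 hour at 4 °C to galactose-induced yeast display cells.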
In the case of “QVQLVESGGGLVQAGGSLRLSCAASGSIFYYNPMGWYRQAPGKERELVATISGRGGSTYYADSVKGRFTISRDNAKNTVYLQMNILKPEDTAVYYCNTVPSHHRHTKYDYWGQGTQVTVSS”, the “polyreactivity (PSR sort gate)” value was “low polyreactivity”. As for “QVQLVESGGGLVQAGGSLRLSCAASGSTFKGYAMGWYRQAPGKERELVAAITWIGGSTTYADSVKGRFTISCDNAKNTVYLQMNSLKPEVTAVYYCAADNFWYFLSATEDYWGQGTQVTVSS”, the “polyreactivity (PSR sort gate)” value is “low polyreactivity”.

Take “QVQLVESGGGLVQAGGSLRLSCAASGRTFQYYTMGWYRQAPGKERELVAAISSSGVSTYYADSVKGRFTISRDNAKNTVYLQMNSLKPEDTAVYYCNAVSRARYHAAYDSWGQGTQVTVSS”: the “polyreactivity (PSR sort gate)” value is given as “high polyreactivity”.

On to “QVQLVESGGGLVQAGGSLRLSCAASGFTFYPNAMGWYRQAPGKEWELVAAISRSGSSTYYADSVKGRFTISRDNAKNTVYLQMNSVKPEDTAVYDCNRYGRQYDFYYWGQGTQVTVSS”, for which the “polyreactivity (PSR sort gate)” value is on record as “high polyreactivity”. The same measure for “QVQLVESGGGLVQAGGSLRLSCAASGSTFYYNTMGWYRQAPGKERELVAAISSGGSTNYADSVKGRFTISRDNAKNTVYLQMNSLKPEDTAVYYCAKRRGGALYAYRYYYWGQGTQVTVSS”: “high polyreactivity”; for “QVQLVESGGGLVQAGGSLRLSCAASGFIFSTYAMGWYRQAPGKERELVAAISWSGGRTNYADSVKGRFTISRDNAKNTVYLQMNSLKPEDTAVYYCAVGGERGARIGSNHRGSRYDYWGQGTQVTVSS”: “high polyreactivity”. “QVQLEESGGRLVQAGGSLRLSCAASGRIFNYYAMGWYRQAPGQERELVAAISNGGSTYYADSVKGRFTISRDNAKNTVYLQMNSLKPEDTAVYYGAAYQTYYARTELDYWGQGTLVTVSS”: the “polyreactivity (PSR sort gate)” value is listed as “high polyreactivity”. Take “QVQLVESGGGLVQAGGSLRLSCAASGSTFSYYVMGWYRPAPGKERELVAAISGSGGSTYYADSVKGRFTISRDNAKNTVYLQMNSLKPEDTAVYYCDANDGSEYDYWGQGTQVTVSS”: the “polyreactivity (PSR sort gate)” value was “high polyreactivity”.

Take “QVQLVDSGGGLVQAGGSLRLSCAASGRIFRYYAMGWSRQAPGKERELVARITNGAITNYADSVKGRFTISRDNAKNTLYLQRNSLKPEETAVYYCAATQNLYRCGYWGQGTQVTVSS”: the “polyreactivity (PSR sort gate)” value is reported as “high polyreactivity”. For the sequence “QVQLVESGGGLVQAGGSLRLSCAASGYIFYFYAMGWYRQAPGKERELVAAISSSGGSTRYADSVKGRFTISRDNAKNTVYLQMNSLKPEDTAVYYCAASHWSGAAWYYYWGQGTQVSVSS”, the “polyreactivity (PSR sort gate)” value is recorded as “high polyreactivity”. Regarding “QVQLVESGGGLVQAGGSLRLSCAASGRIFHGYAMGWYRQAPGKERELVAAISATGGSTYYADSVKGRFTISRDNAKNTVYLQMNSLKPEDTAVYYCARTNFYRSYDPGGRFYNYDYWGQGTQVTVSS”, the “polyreactivity (PSR sort gate)” value is “low polyreactivity”. Consider “QVQLVESGGGLVQAGGSLRLSCAASGRIFLSYAMGWYRQAPGKERELVAAIRSTGTRTYYADSVKGRFTISRDNAKNTVYLQMNSLKPEDTAVYYCAVGDYGLWSYDYWGQGTQVTVSS”, for which the “polyreactivity (PSR sort gate)” value is given as “low polyreactivity”.

For the sequence “QVQLVESGGGLVQAGGSLRLSCAASGFTFKYTDMGWYRQAPGKERELVAAINWRGGSTYYADSLKGRFTISRDNAKNTVYLQMNSLKPEDTAFYYCNLVYRPSRYDYWGQGTQVTVSS”, the “polyreactivity (PSR sort gate)” value is “high polyreactivity”. In the case of “QVQLVESGGGLVQAGGSLRLSCAASGSIRYYYVMGWYRQAPGKERELVAAITSGGSTYYADSVKGRFTISRDNAKNTVYLQMNSLKPEDTAVYYCNARTRSLTGSRFNYWGQVTQVTVSS”, the “polyreactivity (PSR sort gate)” value is reported as “high polyreactivity”. The same measure for “QVQLVESGVGLVQAGGSLRLICGASGFTFDYNSMVWYRQAPGKERELVAAISASGGSTYYADSVKGRFTISRDNAKNTVYLQMKSLKPEDTAVYYCNAGRVTRRDTFDYWGQGTQVTVSS”: “high polyreactivity”; for “QVQLVESGGGLVQAGGSLRLTCAASGITFYYYAMGWYRQAPAKERELVAAISFRGGSTYYADSVKARFTISRDNPKNTFYLQMNSLNPEDTAVYYCASVTSPSWYTWVTYDYWGQGTQVTVSS”: “high polyreactivity”; for “QVQLVESGGGLVQAGGSLRLSCAASGSTYATYAMGWYRQAPGKERELVAVITRGGRTYYADSVKGRFTISRDNAKNTVYLQMNSLKPEDTAVYYCAARTLWYVIFTLHDYNYWGQGTQVTVSS”: “high polyreactivity”. Regarding “QVQLVESGGGLVQAGGSLRLSCAASGSTFYSYGMGWYRQAPGKERELVAAITEDGDTTYYADSVKGLYTISRDNAKNTVYLQMNSLKPEDTAVYYCAAETYYLDDYWGQATQVTVSS”, the “polyreactivity (PSR sort gate)” value was “high polyreactivity”. In the case of “QVQLVESGGGLVQAGGSRRIICAASGSIFGYYAMGWYRQAPGKEREFVAAISGRGSSTYYADSVKGRFTISRDNAQNTVYLQMNSLKPEDTAVYYCARVTYKHYGYWGQGTQVTVSS”, the “polyreactivity (PSR sort gate)” value was “high polyreactivity”.

For “QVQLVESGGGLVQAGGSLRLSCAASGRTFYGYAMGWYRQAPGKEREFVAAINWSGGTTYYADSVKGRFTISRDNAKNTVYLQMNSLKPEDTAVYYCAADYYRIRRWPGYYAYDYWGQGTQVTVSS”, the “polyreactivity (PSR sort gate)” value is recorded as “high polyreactivity”. Then “QVQLVESGGGLVQAGGSLRLSCAASGSTFSGYAMGWYRQAPGKERELVAAISTSGGRTYYADSVKGRFTISRDNAKNTVYLQMNSLKPEDTAVYYCAAQYRGLYKGLGSWGQGTQVTVSS”, with “high polyreactivity”. In the case of “QVQLVESGGGLVQAGGSLRLSCAASGFTFRYYAMGWSRQAPGKERELVARITSGGSTNYADSVKGRFTISRDNAKNTVYLQMNSLKPEDTAVYYCAASPYRYWRMYSWGQGTQVTVSS”, the “polyreactivity (PSR sort gate)” value is “high polyreactivity”. On to “QVQLVESGGGLVQAGGSLRLSCAASGFTFTEYAMGWYRQAPGKERELVADITWSGGITYYADSVKGRFTISRDNAKNTVYLQMNSLKPEDTAVYYCNADYIYSYFYIRYDYWGQGTQVTVSS”, for which the “polyreactivity (PSR sort gate)” value is on record as “low polyreactivity”. Take “QVQLVESGGGLVQAGGSLRLSCAASGRIFPYYAMGWYRQAPGKERELVASIRYSAGNTYYADSVKGRFTISRDNAKNTVYLQMNSLKPEDTAVYYCAKLYRSYTIRPVWGRYDYWGQGTQVTVSS”: the “polyreactivity (PSR sort gate)” value was “low polyreactivity”. For “QVQLVESGGGLVQAGGSLRLSCAASGITFRWNAMGWYRPAPGKERELVAAITTRGGGTYYADSVKGRFTISRDNAKNTVYLQMNSMKPEDTAVYYCAAKKSRYPYNYWGQGTQVTVSS”, the “polyreactivity (PSR sort gate)” value was “high polyreactivity”. With “QVQLVESGGGLVQAGGSLRLSCAASGSTFPYYTMGWYRQAPGKERELVAAITWRGGRTYYADSVKGRFTISRDNAKNTVYLQMNSLKPEDTAVYYCAAKQKHTQQTGWKYEYWGQGTQVTVSS”, the “polyreactivity (PSR sort gate)” value is recorded as “high polyreactivity”. With “QVQLVESGGGLVQAGGRLRLSCAASGSIFSHNVMGWYRQAPGKEGELVAAITYRGGSTYYADSVKGRFTISRDNAKNTVYLQMNSLKPEDTAVYYCSALNEVSTYHGFDYWGQGTQVTVSS”, the “polyreactivity (PSR sort gate)” value is given as “low polyreactivity”. As to “QVQLVESGGGLVQAGGSLRLSCAASGRTFAYYAMGWYRPAPGKERELVATITRSGGITSYADSVKGRFTISRDNAKNTVYLQMSSLKPADTAVYYCNTGYSNRLHDYWGQGTQVTVSS”, the “polyreactivity (PSR sort gate)” value is listed as “high polyreactivity”. Then “QVQLVESGGGLVQAGGSLRLSCAASGYTFRYNAMGWYRQAPGKERELVASITFSGGRTFYADSVKGRFTISRDNAKNTVYLQMNSLKPEDTAVYYCAAVRWGRRSGGLVAEYDYWGQGTQVTVSS”, with “high polyreactivity”. Regarding “QVQLVESGGGLVQAGGSLRLSCAASGSTFWGNAMGWYRQAPGKERELVAAISSRGGSTYYADSVKGRFTISRDNAKNTVYLQMNSLKPEDTAVYYCNTLQSSHGSSQYDSWGQGTQVTVSS”, the “polyreactivity (PSR sort gate)” value is reported as “low polyreactivity”. In the case of “QVQLVESGGGLVQERGSLRLSCAASGRIFGKYAMAWYRLAPGKERELVATISYGGGNTYYADSVKGRFTISRDNAKNTVYLQMNSMKPEDTAVYYCARVPYAYLRYKPFQQYSYDYWGQGTKVTVSS”, the “polyreactivity (PSR sort gate)” value was “high polyreactivity”. Regarding “QDQLVESGGGLVQAGGSLRLSCAASGFISRKNAMGWSRQAPGKERELVATITKSGDTTYYADSVKGRFTISRDNAKNTVYLQMNSLKPEDTAVYYCAAPLYYIGSWDYYVRYIYDYWGQGTQVTVSS”, the “polyreactivity (PSR sort gate)” value is recorded as “low polyreactivity”. As to “QVQLVESGGGLVQAGGSLRLSCAASGSIFSRNTMGWYRQAPGKERELVATITSGSNTNYADSVKGRFTISRDNAKNTVYLQMNSLKPEDTAVYYWGQGTQVTVSS”, the “polyreactivity (PSR sort gate)” value is on record as “low polyreactivity”.

Take “QVQLVESGGGLVQAGGSLRLSCAASGSTFGVYAMGWSRQAPGKERELDAAIRWSDGTTYYADSVKGRFTNSRDNAKNPVYLQMNSLKPEDTAVYYCAAVGYKRGTGRYGYWGQGTQVTVSS”: the “polyreactivity (PSR sort gate)” value is listed as “high polyreactivity”.

Turning to “QVHLVESGGGLVQAGGSLRLSCAASGFTFGHYAMGWYRQAPGKERELVAAITYRGGSTYYADSVKGRFTISRDNAKNTVYLQMNSLKPEDTAVYYCNADRRYKVYFAQNGHYDYWGQGTQVTVSS”, the “polyreactivity (PSR sort gate)” value is recorded as “high polyreactivity”. Take “QVQLVESGGGLGQAGGSLRLSCAASGRTITFNTMGWYRPAPGKERELVAGIDRGGSTNYADSVKGRFTISRDNAKNTVDLQMNSLKPEDTAVYYCAARNLRYRYRNYDYWGQGTQVTVSS”: the “polyreactivity (PSR sort gate)” value is on record as “high polyreactivity”.

On to “QVQLVESGGGLVQAGGSLRLSCAASGSTFYINAMGWYRQAPGKERELVAAISWSGGSTYYADSVKGRFTISRDNAKNTVYLQMNSMKPEDTAVYYCAADWYLGWSLDYDYWGQGTQVTVSS”, for which the “polyreactivity (PSR sort gate)” value was “low polyreactivity”. The same measure for “QVQLVESGGGLVQAGGSLRLSCAASGFIFAQNAMGWSRQAPGTERELVAAITSSGVSTYYADSVKGRFTISRDNAKNTVYLQMNSLKPEDTAVYYCNRTPRYTIRYGYWGQGTQVTVSS”: “high polyreactivity”; for “QDQLVESRGGLVQAGGSLRLSCAASGRTFYINAMGWYRQAPGKERELVAAISWGGGRTYYADSVKGRFTISRDNAKNTVYLQMNSLKPEDTAVYYCAAEVAYYKYDYWGQGTQVTVSS”: “high polyreactivity”. For “QVHLVESGGGLVQAGGSLRISCAASGRIFVGYVMGWYRQAPGKERELVAAITWRGGSTYADSVKGRFTISRDNAKNTVYLQMNSLIPEDTAVYYCAAKVSRTYPRIPYYYWGQGTQVTVSS”, the “polyreactivity (PSR sort gate)” value is given as “high polyreactivity”.

Turning to “QVQLVESGGGLVQAGGSLRLSCAASGRTFSIYAMGWYRQAPGKERELVAAISNGGRTKYADSVKGRFTISRDNAKNTVYLQMNSLKPEDTAVYYCAASRPRPPSSRRMDYWGQGTQVTVSS”, the “polyreactivity (PSR sort gate)” value is listed as “high polyreactivity”.
